Laboratory results as given in article PMC6521584, “Sucrose 6^F-phosphate phosphorylase: a novel insight in the human gut microbiome” (Microbial Genomics, 2019).

Test system: O=P(O)(O)OC[C@H]1O[C@@](CO)(O[C@H]2O[C@H](CO)[C@@H](O)[C@H](O)[C@H]2O)[C@@H](O)[C@@H]1O
Experiment: purified protein
Assay type: biochemical, Mediterraneibacter gnavus
Conditions: phosphorolysis, 100 mM sodium phosphate buffer as co-substrate, pH 6.0, 40 °C, 1.0-20 mM substrate

## RgSPP (sucrose 6^F-phosphate phosphorylase; formerly SucP) (Mediterraneibacter gnavus)
  Km: 1700 µM
  kcat: 740 s⁻¹
  kcat/Km: 435000 M⁻¹ s⁻¹
